The results in this text go back to the FLAb antibody collection (doi:10.7554/elife.23156).

What is called Kd is the constant that tells how readily two partners part at equilibrium.

To fix the notation:
B1: scFv; the commonest letter at each place (parent)
chain 1: EVKLDETGGGLVQPGRPMKLSCVASGFTFSDYWMNWVRQSPEKGLEWVAQIRNKPYNYETYYSDSVKGRFTISRDDSKSSVYLQMNNLRVEDMGIYYCTGSYYGMDYWGQGTSVTVS
chain 2: DVVMTQTPLSLPVSLGDQASISCRSSQSLVHSNGNTYLRWYLQKPGQSPKVLIYKVSNRFSGVPDRFSGSGSGTDFTLKISRVEAEDLGVYFCSQSTHVPWTFGGGTKLEIK

The data set “fluorescein” covers variants of B1. The data set can be described thus: Kd (Tite-Seq). The settings on record: with fluorescein; format: scFv 4-4-20, heavy + light.
In data set [1] the parent is B1. The data set can be described thus: yeast surface expression (ratio to wild type); higher = more expressed. The settings on record: format: scFv 4-4-20, heavy + light.

chain 1 D106A W108M: the Kd with fluorescein is at least 10 µM. In addition, in data set [1], the yeast surface expression was found to be 0.713.

chain 1 D106I W108Q: the Kd with fluorescein was at least 10 µM. Besides, the yeast surface expression in data set [1] worked out at 0.395.

Take chain 1 D106I W108R: the Kd in the data set with fluorescein is at least 10 µM. Further, the yeast surface expression in data set [1] was found to be 0.422.

Take chain 1 D106I W108N: in the data set with fluorescein, the Kd was at least 10 µM. Besides, the yeast surface expression in data set [1] was 0.254.

With chain 1 D106I W108S, the Kd with fluorescein is at least 10 µM. Moreover, the yeast surface expression in data set [1] stood at 0.397.

As to chain 1 D31E M34P, in the data set with fluorescein, the Kd was at least 10 µM. For the same variant, the yeast surface expression in data set [1] amounted to 0.406.

With chain 1 D31E M34N, the Kd in the data set with fluorescein is at least 10 µM. Besides, the yeast surface expression in data set [1] stood at 0.61.

As to chain 1 D31L Y32M W36M, in the data set with fluorescein, the Kd is at least 10 µM. The yeast surface expression in data set [1] turned out to be 0.543.

As to chain 1 D106N G109K, the Kd with fluorescein is at least 10 µM. Further, in data set [1], the yeast surface expression was found to be 0.277.

Take chain 1 D106N G109N: in the data set with fluorescein, the Kd was at least 10 µM. The yeast surface expression in data set [1] came to 0.301.

For the variant chain 1 D31F Y32V N35C, the Kd in the data set with fluorescein was at least 10 µM. For the same variant, the yeast surface expression in data set [1] is 0.0993.

For chain 1 D106H Y107D, the Kd in the data set with fluorescein is at least 10 µM. The yeast surface expression in data set [1] stood at 0.284.

Take chain 1 D106H Y107A: the Kd with fluorescein is at least 10 µM. Moreover, the yeast surface expression in data set [1] is 0.455.

For the variant chain 1 D31W W33L N35I, the Kd with fluorescein was at least 10 µM. Moreover, the yeast surface expression in data set [1] came to 0.49.

chain 1 D31H W33L: the Kd with fluorescein is at least 10 µM. Moreover, the yeast surface expression in data set [1] worked out at 0.72.

In the case of chain 1 D31H W33P, the Kd with fluorescein was at least 10 µM. Also, the yeast surface expression in data set [1] is 0.631.

As to chain 1 D106F G109A, in the data set with fluorescein, the Kd is at least 10 µM. The yeast surface expression in data set [1] turned out to be 0.112.

chain 1 D106K W108G: the Kd in the data set with fluorescein was at least 10 µM. For the same variant, the yeast surface expression in data set [1] is 0.276.

For the variant chain 1 D31S M34C N35Y, the Kd with fluorescein was at least 10 µM. In data set [1], the yeast surface expression came to 0.927.

For chain 1 D31A W36M, the Kd in the data set with fluorescein is at least 10 µM. Besides, in data set [1], the yeast surface expression came to 0.551.

chain 1 D31A W36H: in the data set with fluorescein, the Kd was at least 10 µM. For the same variant, the yeast surface expression in data set [1] stood at 0.137.

As for chain 1 D31P V37W, in the data set with fluorescein, the Kd is at least 10 µM. Also, the yeast surface expression in data set [1] was 0.565.

Consider chain 1 D31G M34C N35L, for which the Kd with fluorescein was at least 10 µM. The yeast surface expression in data set [1] was found to be 0.825.

In the case of chain 1 D106Q W108G, in the data set with fluorescein, the Kd is at least 10 µM. Besides, the yeast surface expression in data set [1] is 0.384.

On to chain 1 D31H N35G, for which the Kd with fluorescein was determined as 0.00468 µM. In addition, the yeast surface expression in data set [1] is 0.736.

For the variant chain 1 D31N N35T, in the data set with fluorescein, the Kd is at least 10 µM. Also, the yeast surface expression in data set [1] was determined as 0.86.

chain 1 D106K G109L: the Kd in the data set with fluorescein is at least 10 µM. Besides, the yeast surface expression in data set [1] was 0.324.

As to chain 1 D106A Y107F, in the data set with fluorescein, the Kd was 1.91 µM. Further, the yeast surface expression in data set [1] was 0.508.

On to chain 1 D106A Y107I, for which the dissociation constant (Kd) with fluorescein stood at 6.61 µM. Moreover, the yeast surface expression in data set [1] turned out to be 0.646.

As to chain 1 D31A Y32K M34C, the Kd with fluorescein was at least 10 µM. The yeast surface expression in data set [1] was found to be 1.1.

As for chain 1 D31A M34L V37G, the Kd with fluorescein was 0.021 µM. The yeast surface expression in data set [1] is 0.0111.

With chain 1 D31M Y32V, the Kd with fluorescein was at least 10 µM. Further, the yeast surface expression in data set [1] stood at 0.528.

Consider chain 1 D31M Y32N, for which the Kd with fluorescein was at least 10 µM. In addition, the yeast surface expression in data set [1] stood at 0.536.

For the variant chain 1 D31M Y32S, the Kd with fluorescein is at least 10 µM. Besides, the yeast surface expression in data set [1] came to 0.804.

Regarding chain 1 D31G Y32D, in the data set with fluorescein, the Kd is at least 10 µM. For the same variant, in data set [1], the yeast surface expression worked out at 0.803.

As to chain 1 D31G Y32L, the Kd in the data set with fluorescein stood at 0.0302 µM. In addition, in data set [1], the yeast surface expression is 0.645.

On to chain 1 D31R N35S V37L, for which the Kd with fluorescein is at least 10 µM. Besides, the yeast surface expression in data set [1] worked out at 0.577.

As for chain 1 D106G Y107W, the Kd in the data set with fluorescein was at least 10 µM. Further, the yeast surface expression in data set [1] stood at 0.338.

As for chain 1 D106G Y107S, the Kd in the data set with fluorescein was at least 10 µM. Moreover, the yeast surface expression in data set [1] came to 0.474.

As to chain 1 D31T M34E, in the data set with fluorescein, the Kd came to 0.0692 µM. Besides, the yeast surface expression in data set [1] stood at 0.635.

Turning to chain 1 D31T M34Y, the Kd in the data set with fluorescein is 0.0494 µM. Further, the yeast surface expression in data set [1] was found to be 0.706.

Regarding chain 1 D31F V37E, the Kd with fluorescein was at least 10 µM. For the same variant, in data set [1], the yeast surface expression was found to be 0.257.

In the case of chain 1 D106L W108R G109Y, in the data set with fluorescein, the Kd is at least 10 µM. In data set [1], the yeast surface expression amounted to 0.0998.

For chain 1 D31R Y32K V37Y, in the data set with fluorescein, the Kd is at least 10 µM. In addition, the yeast surface expression in data set [1] came to 1.3.

chain 1 D31E V37L: in the data set with fluorescein, the Kd was at least 10 µM. In data set [1], the yeast surface expression was 0.735.

Regarding chain 1 D106E W108I, the Kd with fluorescein was 0.228 µM. The yeast surface expression in data set [1] stood at 0.866.

As for chain 1 D31R W36M V37G, the Kd with fluorescein was determined as 0.79 µM. Besides, in data set [1], the yeast surface expression is 3.04.

For chain 1 D31P N35F, the Kd with fluorescein turned out to be 0.0302 µM. The yeast surface expression in data set [1] was 0.944.

chain 1 D106F Y107G: in the data set with fluorescein, the Kd is at least 10 µM. Also, the yeast surface expression in data set [1] was found to be 0.238.

With chain 1 D106F Y107D, in the data set with fluorescein, the Kd is at least 10 µM. For the same variant, in data set [1], the yeast surface expression was found to be 0.296.

Turning to chain 1 D31C W36G, the Kd with fluorescein is at least 10 µM. For the same variant, in data set [1], the yeast surface expression came out at 0.738.

Regarding chain 1 D31Y W33C, in the data set with fluorescein, the Kd is at least 10 µM. The yeast surface expression in data set [1] was determined as 0.597.

In the case of chain 1 D31Y W33R, in the data set with fluorescein, the Kd was at least 10 µM. In addition, the yeast surface expression in data set [1] is 0.325.

As for chain 1 D31Y W33H, the Kd in the data set with fluorescein was at least 10 µM. Moreover, in data set [1], the yeast surface expression came to 0.579.

Consider chain 1 D31L Y32N, for which the Kd with fluorescein is at least 10 µM. Besides, the yeast surface expression in data set [1] stood at 0.847.

On to chain 1 D31L Y32M, for which the Kd with fluorescein is at least 10 µM. The yeast surface expression in data set [1] was determined as 0.772.

chain 1 D31L Y32A: the Kd with fluorescein came to 0.0944 µM. Also, the yeast surface expression in data set [1] is 0.73.

In the case of chain 1 D106A G109H, the Kd with fluorescein was at least 10 µM. Also, the yeast surface expression in data set [1] turned out to be 0.448.
